For data set [1], the target named is T1, L-selectin (LS-Rg) (Homo sapiens, UniProt P14151 P14151:39-332).
T1 sequence: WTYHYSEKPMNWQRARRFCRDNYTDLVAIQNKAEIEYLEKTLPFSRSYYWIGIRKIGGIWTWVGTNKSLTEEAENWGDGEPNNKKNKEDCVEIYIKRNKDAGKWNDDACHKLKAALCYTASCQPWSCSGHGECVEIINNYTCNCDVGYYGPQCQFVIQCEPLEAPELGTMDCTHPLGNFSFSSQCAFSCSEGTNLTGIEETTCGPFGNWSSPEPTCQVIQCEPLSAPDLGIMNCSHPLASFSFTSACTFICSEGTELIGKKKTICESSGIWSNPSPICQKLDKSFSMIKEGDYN
In words: filter; affinity similar to full length LD201. The following applies: tags: human IgG2 Fc fusion; chain copies: 2 (stated dimer).

The next data set has as its target T2, soluble L-selectin (Homo sapiens, UniProt P14151 P14151:39-332).
T2 sequence: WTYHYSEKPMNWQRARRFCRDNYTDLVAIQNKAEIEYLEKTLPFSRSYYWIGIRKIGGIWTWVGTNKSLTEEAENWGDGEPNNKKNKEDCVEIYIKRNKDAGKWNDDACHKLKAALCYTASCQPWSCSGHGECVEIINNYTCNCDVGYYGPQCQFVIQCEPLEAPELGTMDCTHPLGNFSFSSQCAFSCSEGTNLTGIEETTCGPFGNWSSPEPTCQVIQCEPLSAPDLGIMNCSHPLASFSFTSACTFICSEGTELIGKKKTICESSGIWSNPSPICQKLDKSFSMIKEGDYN
Kind of data set: filter; 37 C; table prints SEQ 339. The following applies: tags: R&D Systems. The procedure: Unless otherwise indicated, all materials used in the 2′-F RNA SELEX against the L-selectin/IgG2 chimera, LS-Rg, were identical to those of Examples 7, paragraph A and 13, paragraph A. SHMCK-140 buffer, used for all SELEX and binding experiments, was 1 mM CaCl₂, 1 mM MgCC₂, 140 mM NaCl, 5 mM KCl. and 20 mM HEPES, pH 7.4. A soluble form of L-selectin, corresponding to the extracellular domains, was purchased from R&D Systems and used for some nitrocellulose filter binding experiments.
(§1) As described in SELEX Patent Applications, a nitrocellulose filter partitioning method was used to determine the affinity of RNA ligands for LS-Rg and for other proteins. Filter discs (nitrocellulose/cellulose acetate mixed matrix, 0.45 μm pore size, Millipore) were placed on a vacuum manifold and washed with 3 ml of SHMCK 140 buffer under vacuum. Reaction mixtures, containing ³²P labeled RNA pools and unlabeled LS-Rg, were incubated in SHMCK 140 for 10-20 min at 37° C., and then immediately washed with 3 ml SHMCK 140. The filters were air-dried and counted in a Beckman LS6500 liquid scintillation counter without fluor. Alternatively, binding studies employed 96 well micro-titer manifolds essentially as described in Example 13, paragraph E.

The target of data set [2] is T3, P-selectin (PS-Rg) (Homo sapiens, UniProt P16109 P16109:42-321). In words: inhibition; sialyl-LewisX. The following applies: tags: human IgG Fc fusion; chain copies: 2 (stated dimer). The procedure:
(§2) The ability of evolved RNA pools or cloned ligands to inhibit the binding of PS-Rg to sialyl-Lewis^x was tested in competitive ELISA assays (C. Foxall et al., 1992, supra). For these assays, the wells of Corning (25801) 96 well microtiter plates were coated with 100 ng of a sialyl-Lewis^x/BSA conjugate, air dried overnight, washed with 300 μl of PBS(−) and then blocked with 1% BSA in HSMC for 60 min at room temperature. RNA ligands were incubated with PS-Rg in HSMC/1% BSA at room temperature for 15 min. After removal of the blocking solution, 50 μl of PS-Rg (10 nM) or a PS-Rg (10 nM)/RNA ligand mix was added to the coated, blocked wells and incubated at room temperature for 60 minutes. The binding solution was removed, wells were washed with 300 μl of PBS(−) and then probed with HRP conjugated anti-human IgG, at room temperature to quantitate PS-Rg binding. After a 30 minute incubation at room temperature in the dark with OPD peroxidase substrate (Sigma P9187), the extent of PS-Rg binding and percent inhibition was determined from the OD₄₅₀.

Data set [3] addresses T3, P-selectin (PS-Rg). Kind of data set: filter; Table 21 gives 63 pM. Conditions: tags: human IgG Fc fusion; chain copies: 2 (stated dimer).
The target of data set [4] is T1, L-selectin (LS-Rg). Kind of data set: filter; room temperature; repeat of Table 13 (57 pM). The following applies: tags: human IgG2 Fc fusion; chain copies: 2 (stated dimer). The method, then: As described in SELEX Patent Applications and in Example 7, paragraph C, a nitrocellulose filter partitioning method was used to determine the affinity of ssDNA ligands for LS-Rg and for other proteins. For these experiments a Gibco BRL 96 well manifold was substituted for the 12 well Millipore manifold used in Example 7 and radioactivity was determined with a Fujix BAS100 phosphorimager. Bindin, data were analyzed as described in Example 7, paragraph C.

The target in data set [5] is T3, P-selectin (PS-Rg). Kind of data set: filter; streptavidin complex. The following applies: tags: human IgG Fc fusion; chain copies: 2 (stated dimer).
Data set [6] concerns the target T1, L-selectin (LS-Rg). In words: filter; affinity similar to full length LD227. Conditions: tags: human IgG2 Fc fusion; chain copies: 2 (stated dimer).
Data set [7] has as its target T4, L-selectin on PBMC / lymphocytes (Homo sapiens, UniProt P14151 P14151:39-372).
T4 sequence: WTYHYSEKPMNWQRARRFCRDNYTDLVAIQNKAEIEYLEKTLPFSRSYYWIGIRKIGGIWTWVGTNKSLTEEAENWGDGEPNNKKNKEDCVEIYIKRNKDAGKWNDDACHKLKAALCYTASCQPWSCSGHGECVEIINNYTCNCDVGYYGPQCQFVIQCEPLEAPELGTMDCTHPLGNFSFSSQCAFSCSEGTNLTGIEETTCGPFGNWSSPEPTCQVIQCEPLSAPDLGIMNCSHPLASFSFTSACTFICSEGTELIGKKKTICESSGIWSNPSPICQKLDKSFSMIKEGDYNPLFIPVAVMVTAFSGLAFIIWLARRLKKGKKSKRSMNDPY
In words: flow; half-saturation; described as LD201T4 fork dimer. Conditions: label: fluorescein.

In data set [8] the target is T4, L-selectin on PBMC / lymphocytes. Kind of data set: flow; half-saturation; described as LD201T4 dumbell dimer. Conditions: label: fluorescein.
For data set [9], the target named is T3, P-selectin (PS-Rg). In words: inhibition; sialyl-LewisX; text says about 2 nM. Conditions: tags: human IgG Fc fusion; chain copies: 2 (stated dimer). The method, then: as §2
In data set [10] the target is T1, L-selectin (LS-Rg). Kind of data set: filter; affinity reduction versus full length LF1807; called LF1807T5 in Table 16. The following applies: tags: human IgG2 Fc fusion; chain copies: 2 (stated dimer). The procedure:
as §1
(§3) Predictions of minimal high affinity sequences for family 1 ligands can be made and serve as a partial test of the postulated secondary structure.

Data set [11] concerns the target T1, L-selectin (LS-Rg). Kind of data set: filter; affinity reduction versus full length LF1514. Conditions: tags: human IgG2 Fc fusion; chain copies: 2 (stated dimer). The method, then:
as §1, §3

The target of another data set is CD22beta (CD22b-Rg) (UniProt P20273 P20273:20-687). In words: filter; no binding above background. Conditions: tags: human IgG1 Fc fusion; chain copies: 2 (inferred).
The target of data set [12] is T3, P-selectin (PS-Rg). Kind of data set: filter. Conditions: tags: human IgG Fc fusion; chain copies: 2 (stated dimer).
Data set [13] has as its target T4, L-selectin on PBMC / lymphocytes. In words: flow; half-saturation, monomer. Conditions: hairpin. From the text:
A variety of monomeric nucleic acid ligands and multivalent Complexes have been examined in flow cytometry.

T3 sequence (P16109 42-321, one chain of several): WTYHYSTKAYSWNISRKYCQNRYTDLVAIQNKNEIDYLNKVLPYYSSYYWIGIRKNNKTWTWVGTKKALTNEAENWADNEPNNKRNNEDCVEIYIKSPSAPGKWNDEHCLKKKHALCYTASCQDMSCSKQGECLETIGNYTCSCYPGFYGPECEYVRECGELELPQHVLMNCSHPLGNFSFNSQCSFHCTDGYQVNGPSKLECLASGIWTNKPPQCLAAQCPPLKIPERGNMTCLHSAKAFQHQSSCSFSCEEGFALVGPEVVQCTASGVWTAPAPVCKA

For CGCGGTAACCAGTACAAGGTGCTAAACGTAATGGCGCG (ssDNA) [LD201T10], the binding signal with L-selectin (LS-Rg) [1] is about 1 fold.

B1: LF1520 (ssRNA)
RNA: GGGAGGACGAUGCGGAUCGAUUUCAUGCGUUUUUCGAGUGACGAUCAGACGACUCGCCCGA
modifications: 2'-F C and U
Turning to B1, in the data set with soluble L-selectin, the Kd (in general, a measure of binding affinity in units of concentration) worked out at 0.5 nM.

On to CUCAACGAACCACGGGGAAAUCCACCAGUAACACGCGAG (ssRNA, 2'-F C and U) [PF398s1], for which, in the data set with P-selectin (PS-Rg) [2], the concentration for half-maximal inhibition (IC50) (commonly the concentration that gives 50% inhibition) came to 2 nM. In the data set with P-selectin (PS-Rg) [3], this molecule returned a Kd of 0.178 nM.

B2: LD230 (ssDNA)
DNA: CTACCTACGATCTGACTAGCTGCACACCTGAGGGTTACAAGGCGCTAGACGTAACCTCTCGCTTACTCTCATGTAGTTCC
B2 displayed a Kd with L-selectin (LS-Rg) [4] of 0.044 nM. The molecule CUCAACGAGCCAGGAACAUCGACGUCAGCAAACGCGAG (ssRNA, 2'-F C and U, biotin bound to streptavidin) [PF377s1B:SA] registered a Kd with P-selectin (PS-Rg) [5] of 0.03 nM. In the data set with L-selectin (LS-Rg) [6], CGCGCGTTACAAGGTGCTAAACGTAACGTACTTGCTTACTCGCG (ssDNA) [LD227X1] displayed a binding signal of about 1 fold.

B3: NX303 fork dimer (ssDNA)
DNA: TCCAGTACAAGGTGCTAAACGTAATGGTT
modifications: two copies on forked 20 kDa PEG, 5' amino C6 dT, 3'-3' terminal [1 = 5' amino modifier C6 dT; 29 = 3'-3' terminal dT; two identical copies on forked 20 kDa PEG (PEG left out)]
Consider B3, for which, in data set [7], the EC50 (as a rule, the concentration needed to bring the measured effect to its halfway point) was 0.6 nM.

B4: NX303 dumbell dimer (ssDNA)
DNA: TCCAGTACAAGGTGCTAAACGTAATGGTT
modifications: two copies on PEG 3400, 5' amino C6 dT, 3'-3' terminal [1 = 5' amino modifier C6 dT; 29 = 3'-3' terminal dT; two identical copies on PEG 3400 (PEG left out)]
In turn, B4 returned an EC50 in [8] of 0.1 nM.

B5: PF377 (ssRNA)
RNA: GGGAGACAAGAAUAAACGCUCAACGAGCCAGGAACAUCGACGUCAGCAAACGCGAGCGCAACCAGUAACACCUUCGACAGGAGGCUCACAACAGGC
modifications: 2'-F C and U
Turning to B5, in the data set with P-selectin (PS-Rg) [9], 3 nM corresponded to half-maximal inhibition (IC50).

Molecule GGAGUCUUAGGCAGCGCGUUUUCGAGCUACUCC (ssRNA, 2'-F C and U) [LF1807T4] returned a binding signal with L-selectin (LS-Rg) [10] of about 3 fold.

Turning to CUCAAAUUGCGUGUUUUCAAGCA (ssRNA, 2'-F C and U) [LF1514T2], the binding signal with L-selectin (LS-Rg) [11] is at least 100 fold.

B6: PA350 (ssRNA)
RNA: GGGAGACAAGAAUAAACGCUCAAGCCCCAAACGCAAGUGAGCAUCCGCAACAGGGAAGAAGACAGACGAUUGAUUCGACAGGAGGCUCACAACAGGC
modifications: 2'-NH2 C and U
Take B6: the binding result with CD22beta (CD22b-Rg) is “no binding”. The IC50 with P-selectin (PS-Rg) [2] stood at 2 nM. CUCAACGAGUUCACAUGGGAGCAAUCUCCGAAUAAACAACACGCGAG (ssRNA, 2'-F C and U) [PF424s1]: the Kd with P-selectin (PS-Rg) [12] was determined as 0.178 nM. In data set [13], CCAGTACAAGGTGCTAAACGTAATGG (ssDNA) [LD201T4] yielded an EC50 of 20 nM.

For the origin of these results see US20030059769, “High affinity nucleic acid ligands to lectins” (published 2003).
